According to paper PMC8092592, “A nanobody toolbox targeting dimeric coiled-coil modules for functionalization of designed protein origami structures” (Proceedings of the National Academy of Sciences of the …, 2021):

Key:
Settings in all cases: both partners purified
[1] = target: T1, APH2, antiparallel homodimeric coiled coil of the synthetic peptide APHshSN (N-terminus acetylated; C-terminus amidated); experiment: ITC; nanobody in the syringe titrated into the cell with TET12SN or a tetrahedron variant (2-5 µM), CC peptide dimer (5-10 µM) or a complex preformed by a first titration; MicroCal VP-ITC, 25 °C; 20 mM sodium phosphate pH 7.0, 150 mM NaCl; independent binding sites model (SEDPHAT), errors by Monte-Carlo
T1 construct: designed peptide APH (full name APHshSN); also called APH peptide pair; source: synthetic peptide, bought: ProteoGenix
T1 peptide: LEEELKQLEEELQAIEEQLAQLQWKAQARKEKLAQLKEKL

[2] = target: T2, preformed Nb28_2-APH2 complex (llama, N-terminus acetylated; C-terminus amidated); experiment: as above
T2 construct: peptide APHshSN, as Dm8; Nb28, as Dm3; source: formed in the ITC cell by a first titration of Nb28 into APH2; copies: 2 + 2

[3] = target: T3, antiparallel homodimeric APH coiled-coil (APH2), isolated peptide dimer (synthetic construct (designed peptide …)); experiment: crystal structure; crystals of nanobody-CC dimer complexes, solved by molecular replacement
T3 construct: residues named in the text: E4, L8, I15, Q18, Q21, L22, W24, K25, R29; also called APH CC; APH2 peptide; source: synthetic peptide
T3 chain: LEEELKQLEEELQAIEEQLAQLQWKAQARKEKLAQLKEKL

[4] = target: T3, antiparallel homodimeric APH …; experiment: ITC; nanobody titrated into the CC peptide dimer, the origami protein or a preformed nanobody-target complex; conditions in SI Appendix
[5] = target: T4, preformed Nb30_2-APH2 complex (llama, N-terminus acetylated; C-terminus amidated); experiment: ITC; nanobody in the syringe titrated into the cell with TET12SN or a tetrahedron variant (2-5 µM), CC peptide dimer (5-10 µM) or a complex preformed by a first titration; MicroCal VP-ITC, 25 °C; 20 mM sodium phosphate pH 7.0, 150 mM NaCl; independent binding sites model (SEDPHAT), errors by Monte-Carlo
T4 construct: peptide APHshSN, as Dm8; Nb30, as Dm5; source: formed in the ITC cell by a first titration of Nb30 into APH2; copies: 2 + 2

[6] = target: T1, APH2, antiparallel homodimeric coiled …; experiment: ITC; titrations at 18, 25 and 32 °C fitted globally (independent binding sites, temperature-independent heat capacity); parameters reported at 25 °C; 20 mM sodium phosphate pH 7.0, 150 mM NaCl

B1: nanobody Nb30 (VHH)
VHH: QVQLQESGGGLVQPGGSLRLSCAASGSIFSDNDMGWYRQPPGKQREWVATITYDHVTWYADSVKGRFAISRDNAKNTVYLQMNDLKPEDTAVYYCNAVPGRRGSWGQGTQVTVSS
notes: no cleavage of the His6 tag is described; also called Group 10 (Nb30); source: E. coli WK6, periplasmic extract, purified (Ni2+-NTA, SEC)
- Kd [1]: 710 ± 58 nM
- stoichiometry N [1]: 2 nanobody per APH2 dimer (cell:syringe)
- Kd [2]: 55 ± 4.2 nM
- stoichiometry N [2]: 2 nanobody per complex (cell:syringe)

B2: nanobody Nb30 (VHH)
VHH: QVQLQESGGGLVQPGGSLRLSCAASGSIFSDNDMGWYRQPPGKQREWVATITYDHVTWYADSVKGRFAISRDNAKNTVYLQMNDLKPEDTAVYYCNAVPGRRGSWGQGTQVTVSS
notes: selected by phage display from a llama immunised with TET12SN; construct and tags are in SI Appendix, Materials and Methods; source: E. coli, recombinant, produced and isolated according to standard procedures
- stoichiometry N [3]: 2 nanobodies per APH2 dimer (printed 2:2 nanobody:CC peptide)

B3: nanobody Nb26 (VHH)
VHH: QVQLQESGGGLVQAGDSLRLSCAASGRTFSTYPMGWFRQAPGKEREFVAASSSRAYYADSVKGRFTISRNNAKNTVYLQMNSLKPEDTAVYYCVADSSPYYRRYDAAQDYDYWGQGTQVTVSS
notes: no cleavage of the His6 tag is described; also called Group 1 (Nb26); source: E. coli WK6, periplasmic extract, purified (Ni2+-NTA; some nanobodies also SEC)
- stoichiometry N [1]: 2 nanobody per APH2 dimer (cell:syringe)

B4: nanobody Nb26 (VHH)
VHH: QVQLQESGGGLVQAGDSLRLSCAASGRTFSTYPMGWFRQAPGKEREFVAASSSRAYYADSVKGRFTISRNNAKNTVYLQMNSLKPEDTAVYYCVADSSPYYRRYDAAQDYDYWGQGTQVTVSS
notes: as for B2
- stoichiometry N [3]: 2 nanobodies per APH2 dimer (printed 2:2 nanobody:CC peptide)
- Kd [4]: 39 nM
- dH [4]: -28 kcal ⋅ mol^−1

B5: nanobody Nb49 (VHH)
VHH: QVQLQESGGGLVQPGGSLRLSCIASGRTFNPYGMGWFRQVPGKERTFVSGITWIGGTTYYVNSVKGRFTISRDRAKNTVYLQMNSLKPEDTAVYYCAADKDNTGYNYWGQGTQVTVSS
notes: no cleavage of the His6 tag is described; also called Group 4 (Nb49); source: E. coli WK6, periplasmic extract, purified (Ni2+-NTA; some nanobodies also SEC)
- stoichiometry N [1]: 2 nanobody per APH2 dimer (cell:syringe)

B6: nanobody Nb49 (VHH)
VHH: QVQLQESGGGLVQPGGSLRLSCIASGRTFNPYGMGWFRQVPGKERTFVSGITWIGGTTYYVNSVKGRFTISRDRAKNTVYLQMNSLKPEDTAVYYCAADKDNTGYNYWGQGTQVTVSS
notes: as for B2
- stoichiometry N [3]: 2 nanobodies per APH2 dimer (printed 2:2 nanobody:CC peptide)
- Kd [4]: 570 nM

B7: nanobody Nb28 (VHH)
VHH: QVQLQESGGGLVQPGGSLRLSCAAPGFRLDNYVIGWFRQAPGKEREGVSCISSSAGSTYYADSVKGRFTISRDNAKNTVYLQMNSLKPEDTAVYYCATACYSSYVTYWGQGTQVTVSS
notes: no cleavage of the His6 tag is described; also called Group 8 (Nb28); source: E. coli WK6, periplasmic extract, purified (Ni2+-NTA; some nanobodies also SEC)
- Kd [5]: 23 ± 1.7 nM
- stoichiometry N [5]: 2 nanobody per complex (cell:syringe)
- Kd [1]: 140 ± 10 nM
- stoichiometry N [1]: 2 nanobody per APH2 dimer (cell:syringe)
- Kd [6]: 94 ± 7.5 nM
- stoichiometry N [6]: 2 nanobody per APH2 dimer (cell:syringe)

B8: nanobody Nb28 (VHH)
VHH: QVQLQESGGGLVQPGGSLRLSCAAPGFRLDNYVIGWFRQAPGKEREGVSCISSSAGSTYYADSVKGRFTISRDNAKNTVYLQMNSLKPEDTAVYYCATACYSSYVTYWGQGTQVTVSS
notes: as for B2
- stoichiometry N [3]: 2 nanobodies per APH2 dimer (printed 2:2 nanobody:CC peptide)
